In patent US20120253017A1 (published 2012):

T1: cyno c-kit (recombinant, on BIAcore chip) (cynomolgus monkey)
T1 chain: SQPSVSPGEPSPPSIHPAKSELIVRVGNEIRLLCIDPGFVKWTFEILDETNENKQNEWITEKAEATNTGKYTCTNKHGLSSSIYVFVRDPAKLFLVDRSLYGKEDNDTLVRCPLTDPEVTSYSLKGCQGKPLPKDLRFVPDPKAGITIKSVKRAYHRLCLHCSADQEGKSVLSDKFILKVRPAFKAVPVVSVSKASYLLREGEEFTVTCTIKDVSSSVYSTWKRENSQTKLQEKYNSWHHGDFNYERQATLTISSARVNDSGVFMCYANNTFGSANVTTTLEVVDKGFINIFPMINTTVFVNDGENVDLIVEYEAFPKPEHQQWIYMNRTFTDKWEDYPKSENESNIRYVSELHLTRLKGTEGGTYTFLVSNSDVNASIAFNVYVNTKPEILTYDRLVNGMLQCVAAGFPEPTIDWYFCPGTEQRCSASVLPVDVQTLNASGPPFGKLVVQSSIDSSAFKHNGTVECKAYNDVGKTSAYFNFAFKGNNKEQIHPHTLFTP


What was measured:
[1] = target: T2, human c-kit (recombinant, on BIAcore chip or beads) (human, UniProt P10721 26-524); test: BIAcore, dAb at 1000 and 500 nM
T2 construct: extracellular domain; also called hcKIT; biotinylated human c-kit
Description: Unique dAbs were expressed as bacterial supernatants in 2.5 L shake flasks in Onex media at 37° C. for 24 hrs at 250 rpm. dAbs were purified from the culture media by absorption to protein A or L agarose followed by elution with 10 mM glycine pH2.0.

[2] = target: T1, cyno c-kit (recombinant, on BIAcore …); test: BIAcore, c-kit on SA chip
[3] = target: T2, human c-kit (recombinant, on BIAcore …); test: BIAcore, c-kit on SA chip
Description: All unique dAb clones were expressed in 50 ml cultures (OnEX plus carbenicillin) overnight at 37° C. and purified on protein A (VH dAbs) or protein L (VK dAbs). Purified dAbs were passed over a SA BIAcore chip coated with either human or mouse c-kit at 1 μM to identify those dAbs that bound specifically to either human or murine c-kit.

[4] = target: T3, human c-kit on HEL-92.1.7 and KU812 cells (human, UniProt P10721 26-976); test: flow cytometry, HEL-92.1.7 cells
T3 construct: whole, on cells

[5] = target: Myosin Light Chain (on streptavidin chip; vMLC1-sulfotag); test: BIAcore, bad fit
[6] = target: T2, human c-kit (recombinant, on BIAcore …); test: BIAcore

T3 sequence (P10721 26-976): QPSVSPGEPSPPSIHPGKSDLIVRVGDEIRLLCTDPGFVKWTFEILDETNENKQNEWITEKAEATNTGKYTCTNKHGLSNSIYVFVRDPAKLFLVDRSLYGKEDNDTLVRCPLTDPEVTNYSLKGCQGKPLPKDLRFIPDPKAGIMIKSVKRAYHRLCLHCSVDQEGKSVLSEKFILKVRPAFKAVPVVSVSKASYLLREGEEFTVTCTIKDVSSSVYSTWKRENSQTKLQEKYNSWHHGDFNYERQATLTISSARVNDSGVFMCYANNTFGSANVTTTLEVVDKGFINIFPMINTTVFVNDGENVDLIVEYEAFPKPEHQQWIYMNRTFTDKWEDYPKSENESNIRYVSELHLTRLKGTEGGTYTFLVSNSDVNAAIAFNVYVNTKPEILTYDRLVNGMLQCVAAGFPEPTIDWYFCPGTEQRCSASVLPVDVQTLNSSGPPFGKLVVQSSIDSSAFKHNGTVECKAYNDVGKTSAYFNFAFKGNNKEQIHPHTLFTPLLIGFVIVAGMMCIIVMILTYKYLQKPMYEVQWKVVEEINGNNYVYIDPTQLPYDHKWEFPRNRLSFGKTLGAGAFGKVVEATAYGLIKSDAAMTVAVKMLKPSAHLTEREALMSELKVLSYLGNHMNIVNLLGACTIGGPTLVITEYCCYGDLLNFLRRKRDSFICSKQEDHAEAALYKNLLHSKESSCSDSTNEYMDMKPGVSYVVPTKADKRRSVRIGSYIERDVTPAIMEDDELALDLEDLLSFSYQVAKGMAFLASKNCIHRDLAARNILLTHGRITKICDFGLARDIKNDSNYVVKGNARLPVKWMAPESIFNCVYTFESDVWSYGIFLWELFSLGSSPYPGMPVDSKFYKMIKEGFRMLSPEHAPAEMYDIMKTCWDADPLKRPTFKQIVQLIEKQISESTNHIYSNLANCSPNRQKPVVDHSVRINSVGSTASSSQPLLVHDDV
Chain of Myosin Light Chain (on streptavidin chip; vMLC1-sulfotag) (chain, as listed by the source): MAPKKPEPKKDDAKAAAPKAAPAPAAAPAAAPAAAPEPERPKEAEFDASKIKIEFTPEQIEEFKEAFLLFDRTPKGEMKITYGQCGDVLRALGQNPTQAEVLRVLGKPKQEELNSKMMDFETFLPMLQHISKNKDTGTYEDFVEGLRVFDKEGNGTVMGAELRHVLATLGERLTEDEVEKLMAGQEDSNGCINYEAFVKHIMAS

| Kd [1] | Kd [2] | Kd [3] | Binder | other results |
| --- | --- | --- | --- | --- |
| 533 nM | 550 nM | 533 nM | DOM28h-5 (other, dAb, C-terminal FLAG tag (pDOM10); also called DOM28h-005) DIQMTQSPSSLSASVGDRVTITCRASQWIGTALTWYQQKPGKAPKLLIYRGSYLQSGVPSRFSGSGSGTDFTLTISSLQPEDFATYYCQQRYFHPYTFGQGTRVEIKR |  |
|  | 345 nM | 239 nM | DOM28h-43 (other, dAb, C-terminal FLAG tag (pDOM10); also called DOM28h-043) DIQMTQSPSSLSASVGDRVTITCRASSPIGESLKWYQQKPGKAPKLLIWGGSWLQSGVPSRFSGSGSGTDFTLTISSLQPEDFATYYCGPGRGWPLTFGQGTKVEIKR |  |
| 896 nM | 10200 nM | 896 nM | DOM28h-84 (other, dAb, C-terminal FLAG tag (pDOM10); also called DOM28h-084) EVQLLESGGGLVQPGGSLRLSCAASGFTFSSYGMSWVRQAPGKGLEWVSWISGTGSGTYYADSVKGRFTISRDNSKNTLYLQMNSLRAEDTAVYYCAKGVPGNNRALFDYWGQGTLVTVSS |  |
|  |  |  | DOM28m-47 (other, dAb, C-terminal FLAG tag (pDOM10)) VH: EVQLLESGGGLVQPGGSLRLSCAASGFTFEAYGMMWVRQAPGKGLEWVSSISHSGLITYYADSVKGRFTISRDNSKNTLYLQMNSLRAEDTAVYYCAENGPLRQNSYFDYWGQGTLVTVSS | binding result [4]: binds |
|  |  |  | DOM28m-53 (other, dAb, C-terminal FLAG tag (pDOM10)) VH: EVQLLESGGGLVQPGGSLRLSCAASGFTFSDYMMMWVRQAPGKGLEWVSTIDHAGAVTYYADSVKGRFTISRDNSKNTLYLQMNSLRAEDTAVYYCAKNQPVWQANQSRRFDYWGQGTLVTVSS | binding result [4]: binds |
|  |  |  | DMS5053 (chimeric MLC mAb-cKIT dAb, DOM28m-017) (bispecific antibody) heavy: not shown light: DIVMSQSPSSLAVSAGDKVTMSCKSSQSLLYSRTRKNYLAWYQQKPGQSPKLLIYWASTRQSGVPDRFTGSGSGTDFTLTISSVQAEDLAVYYCKQSYNLFTFGSGTKLEIKRTVAAPSVFIFPPSDEQLKSGTASVVCLLNNFYPREAKVQWKVDNALQSGNSQESVTEQDSKDSTYSLSSTLTLSKADYEKHKVYACEVTHQGLSSPVTKSFNRGEC | Kd [5]: 0.003 nM; Kd [6]: 36000 nM |
|  |  |  | DMS5057 (chimeric MLC mAb-cKIT dAb, DOM28m-109) (bispecific antibody) heavy: not shown light: DIVMSQSPSSLAVSAGDKVTMSCKSSQSLLYSRTRKNYLAWYQQKPGQSPKLLIYWASTRQSGVPDRFTGSGSGTDFTLTISSVQAEDLAVYYCKQSYNLFTFGSGTKLEIKRTVAAPSVFIFPPSDEQLKSGTASVVCLLNNFYPREAKVQWKVDNALQSGNSQESVTEQDSKDSTYSLSSTLTLSKADYEKHKVYACEVTHQGLSSPVTKSFNRGEC | Kd [5]: 0.116 nM; Kd [6]: 318 nM |
|  |  |  | DMS5055 (chimeric MLC mAb-cKIT dAb, DOM28m-104) (bispecific antibody) heavy: not shown light: DIVMSQSPSSLAVSAGDKVTMSCKSSQSLLYSRTRKNYLAWYQQKPGQSPKLLIYWASTRQSGVPDRFTGSGSGTDFTLTISSVQAEDLAVYYCKQSYNLFTFGSGTKLEIKRTVAAPSVFIFPPSDEQLKSGTASVVCLLNNFYPREAKVQWKVDNALQSGNSQESVTEQDSKDSTYSLSSTLTLSKADYEKHKVYACEVTHQGLSSPVTKSFNRGEC | Kd [5]: 0.124 nM; Kd [6]: 72 nM |
|  |  |  | DOM28m-52 (other, dAb, C-terminal FLAG tag (pDOM10)) EVQLLESGGGLVQPGGSLRLSCAASGFTFSSYNMSWVRQAPGKGLEWVSWISSSGLMTYYADSVKGRFTISRDNSKNTLYLQMNSLRAEDTAVYYCAKTSLGSHPSRRPFDYWGQGTLVTVSS | binding result [4]: binds |
| 21800 nM | 19200 nM | 21800 nM | DOM28h-94 (other, VH dAb, C-terminal FLAG tag (pDOM10); also called DOM28h-094) VH: EVQLLESGGGLVQPGGSLRLSCAASGFTFFPYAMGWVRQAPGKGLEWVSFISGRGDTTYYADSVKGRFTISRDNSKNTLYLQMNSLRAEDTAVYYCAKTATSDLWNFDYWGQGTLVTVSS |  |
| 48 nM | 98.5 nM | 48 nM | DOM28h-33 (other, dAb, C-terminal FLAG tag (pDOM10); also called DOM28h-033) EVQLLESGGGLVQPGGSLRLSCAVSGFTFWNYRMGWVRQAPGKGLEWVSSITPQGTHTYYADSVKGRFTISRDNSKNTLYLQMNSLRAEDTAVYYCAKILSMSENHFDYWGQGTLVTVSS |  |
